We go through two molecules from patent publication US20260055195A1 (COUNCIL OF THE QUEENSLAND INSTITUTE OF MEDICAL RESEARCH, published 2026).

Experiment [1] deals with T1, EphA3 expressed on tumour cell lines (LK63, U251, D270) (UniProt P29320 21-983).
T1 construct: whole, on cells; also called EphA3 on LK63 cells; EphA3 on U251 cells
T1 sequence (looked up): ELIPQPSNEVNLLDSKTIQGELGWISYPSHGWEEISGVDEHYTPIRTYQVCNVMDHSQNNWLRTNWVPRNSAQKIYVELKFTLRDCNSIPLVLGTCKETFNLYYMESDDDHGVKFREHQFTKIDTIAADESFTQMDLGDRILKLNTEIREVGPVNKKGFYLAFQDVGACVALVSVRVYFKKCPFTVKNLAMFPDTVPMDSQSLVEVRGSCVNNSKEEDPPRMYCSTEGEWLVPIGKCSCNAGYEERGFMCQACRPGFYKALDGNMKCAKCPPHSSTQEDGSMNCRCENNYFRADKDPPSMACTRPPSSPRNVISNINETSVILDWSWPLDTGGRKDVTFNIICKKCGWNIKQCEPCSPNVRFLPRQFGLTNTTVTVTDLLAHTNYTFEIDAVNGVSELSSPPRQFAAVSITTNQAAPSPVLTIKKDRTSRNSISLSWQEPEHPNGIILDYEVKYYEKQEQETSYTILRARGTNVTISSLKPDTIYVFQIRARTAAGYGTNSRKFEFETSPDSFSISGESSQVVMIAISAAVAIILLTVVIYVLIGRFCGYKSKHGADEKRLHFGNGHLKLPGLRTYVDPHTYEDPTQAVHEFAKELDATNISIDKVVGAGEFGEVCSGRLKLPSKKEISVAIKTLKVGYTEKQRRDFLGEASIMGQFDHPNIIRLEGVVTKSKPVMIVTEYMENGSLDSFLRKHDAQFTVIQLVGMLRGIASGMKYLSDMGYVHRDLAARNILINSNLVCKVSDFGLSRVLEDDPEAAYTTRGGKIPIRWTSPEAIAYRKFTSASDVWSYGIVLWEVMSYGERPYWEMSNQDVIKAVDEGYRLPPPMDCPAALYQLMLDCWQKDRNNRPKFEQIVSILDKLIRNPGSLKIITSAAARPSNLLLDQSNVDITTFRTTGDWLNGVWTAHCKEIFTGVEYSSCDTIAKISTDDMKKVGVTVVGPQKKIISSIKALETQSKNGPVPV
Kind of experiment: flow cytometry, subclone supernatant on LK63 cells.

Experiment [2] deals with T1, EphA3 expressed on tumour cell lines …. Kind of experiment: flow cytometry on glioma cell lines D270 and U251. On the technique in general: In flow cytometry, cells or beads pass a laser one at a time.

B1: Clone 2D4-1 anti-EphA3 monoclonal antibody (antibody, V domains shown)
VH: QVHLKESGPGLVAPSQSLSITCTVSGFSLTGYGVNWIRQPPGKNLEWLGMIWGDGSTDYNSVLKSRLSISKDNAKSQVFLEMNSLQTDDTANYYCARDRGISYYYAMDYWGQGTSVTVSS
VL: DIVLTQSPASLAVSLGQRATISCRASKSVSASGYSYLHWYQQKPGQPPKLLIFLAYNLGSGVPARFSGSGAGTDFTLNIHPVEEEDAATYYCQHSREFPLTFGAGTKLELK
notes: Mouse hybridoma monoclonal, screened as subclone supernatant
In the case of B1, in experiment [1], the binding result was “binds”.

B2: Clone 3C3-1 anti-EphA3 monoclonal antibody (antibody, V domains shown)
VH: QVQLQQSGAELARPGASVKMSCKSSGYTFTIYTIHWVKQRPGQGLEWIGYINPSSDYTNYNQKFKDKATLTADKSSTTAYMQLSSLTSEDSAVYYCVREGAYGNYDFAMDYWGQGTSVTVSS
VL: DVLMTQTPLSLPVSLGDQASISCRSSQNIVHNNGNTYLEWYLQKPGQSPKLLIYKVSNRFSGVPDRFSGSGSGTDFTLKISRVEAEDLGVYYCFQTSHVPYTFGGGTKLEIK
notes: as for B1
Regarding B2, in experiment [2], the binding result is “binds”.
